Data as given in patent US20030027358A1.

Target: MHC Class I heavy chains (HLA-A, B and C molecules) on CB23, HSB2, MP-1, Jurkat, primary T cells, primary B cells and primary NK cells
Test: flow cytometry competition; W6/32 at 0, 2, 5 or 10 µg in 100 µL, competitor 5 µg P3G2/Fc

W6/32 (ATCC HB-95), an antibody against MHC Class I heavy chains
amount of W6/32 at which P3G2 binding was totally blocked: 5 µg
